The values that follow come from patent publication US20170253660A1.

Assay [1] has as its target human CD16 Fc receptor on NK92-MI cells (human) (UniProt P08637). Kind of assay: cell-based or functional assay. The following applies: for LAN1-CD16 Potency: scale: relative to m3F8.
The target in assay [2] is human CD32 Fc receptor on NK92-MI cells (human). As to the kind of experiment: cell-based or functional assay. The following applies: for LAN1-CD32 Potency: scale: relative to m3F8.

Sequence of human CD16 Fc receptor on NK92-MI cells (human) (P08637 17-254): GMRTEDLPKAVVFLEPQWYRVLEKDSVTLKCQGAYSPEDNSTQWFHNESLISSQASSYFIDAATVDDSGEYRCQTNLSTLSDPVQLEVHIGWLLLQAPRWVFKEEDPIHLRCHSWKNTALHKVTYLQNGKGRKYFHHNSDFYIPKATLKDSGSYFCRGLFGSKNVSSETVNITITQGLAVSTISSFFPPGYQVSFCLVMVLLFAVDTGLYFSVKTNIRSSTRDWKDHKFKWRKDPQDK

As for 14.G2a (antibody), in assay [1], the Antibody potency using NK92-CD16 ADCC, BE(1)N (relative potency (m3F8 = 1)) amounted to 1; the Antibody potency using NK92-CD16 ADCC, LAN1 (relative potency (m3F8 = 1)) was found to be 0.4; the Antibody potency using NK92-CD16 ADCC, NMB7 (relative potency (m3F8 = 1)) was 1; the Antibody potency using NK92-CD16 ADCC, SHEP1 (relative potency (m3F8 = 1)) is 1. In assay [1], this substance displayed an Antibody potency using NK92-CD16 ADCC, SKNLP (relative potency (m3F8 = 1)) of 1; an M14-CD16 Potency (relative to m3F8) of 1; an LAN1-CD16 Potency of 4. Also, in assay [2], the M14-CD32 Potency (relative to m3F8) was 6 and the LAN1-CD32 Potency was found to be 2.
For ch14.18 (antibody), in assay [1], the Antibody potency using NK92-CD16 ADCC, LAN1 (relative potency (m3F8 = 1)) was 4; the Antibody potency using NK92-CD16 ADCC, SHEP1 (relative potency (m3F8 = 1)) was determined as 3; the Antibody potency using NK92-CD16 ADCC, SKNLP (relative potency (m3F8 = 1)) was determined as 8; the M14-CD16 Potency (relative to m3F8) was found to be 9. In assay [2], this substance showed an M14-CD32 Potency (relative to m3F8) of 21 and an LAN1-CD32 Potency of 8.
Substance heat modified m3F8 (antibody) yielded an Antibody potency using NK92-CD16 ADCC, LAN1 (relative potency (m3F8 = 1)) in assay [1] of 0.2.
On to murine 3F8 (antibody), for which, in assay [1], the Antibody potency using NK92-CD16 ADCC, BE(1)N (relative potency (m3F8 = 1)) came out at 1; the Antibody potency using NK92-CD16 ADCC, LAN1 (relative potency (m3F8 = 1)) was found to be 1; the Antibody potency using NK92-CD16 ADCC, NMB7 (relative potency (m3F8 = 1)) amounted to 1; the Antibody potency using NK92-CD16 ADCC, SHEP1 (relative potency (m3F8 = 1)) was 1. In assay [1], this substance registered an Antibody potency using NK92-CD16 ADCC, SKNLP (relative potency (m3F8 = 1)) of 1; an M14-CD16 Potency (relative to m3F8) of 1; an LAN1-CD16 Potency of 1. Besides, in assay [2], the M14-CD32 Potency (relative to m3F8) is 1 and the LAN1-CD32 Potency amounted to 1.
